Assay results from patent publication US20210052637A1 (CONSIGLI NAZIONALE DELLE RICERCHE, published 2021).

Biological target: T1, folate receptor Frα (UniProt P15328 25-234, limits assumed)
T1 construct: whole, on cells; also called α-FR; folate receptor alpha
Assay: flow cytometry on IGROV-1, KB and A431-tFR cells; 0.025 mg/mL antibody fragment on nanocubes, 4° C., 1 hour; detected with anti-myc primary antibody and Alexa-488 secondary antibody
Procedure: The A431-tFR and A431-MOCK cells provided by the IRCSS Foundation, National Cancer Institute, Milan, Italy, were grown in the modified Dulbecco culture medium (DMEM, Merck, Kenilworth, USA). IGROV-1 cells (ATCC, UK) were cultured in RPMI-1640 (RPMI-1640, Merck, Kenilworth, USA). The KB cells (ATCC, UK) were cultured in RPMI-1640 without folic acid (RPMI-1640 without folic acid, Merck, Kenilworth, USA). All culture media were added with 10% inactivated fetal bovine serum (FBS), 1% penicillin-streptomycin and 1% glutamine at 37° C., 95% humidity with 5% CO2. The cells were divided every 3-4 days before reaching confluence.
In these experiments, the functionalized nanocubes of the invention comprising the antibody fragment in a quantity of 0.025 mg/mL were incubated in PBS at 4° C. for 1 hour with 5×10⁵ cells of the cell lines indicated above. As a negative control, the non-functionalised nanocubes with polymer coating were used. Then, after three washes, the cells were incubated for 1 hour at 4° C. with the primary antibody that binds to the myc sequence of the C4 antibody fragment. Following a wash in PBS a secondary antibody conjugated to the fluorescent probe Alexa-488 was added to the cells, capable of binding the Fc portion of the primary antibody.

T1 sequence (P15328 25-234 limits assumed): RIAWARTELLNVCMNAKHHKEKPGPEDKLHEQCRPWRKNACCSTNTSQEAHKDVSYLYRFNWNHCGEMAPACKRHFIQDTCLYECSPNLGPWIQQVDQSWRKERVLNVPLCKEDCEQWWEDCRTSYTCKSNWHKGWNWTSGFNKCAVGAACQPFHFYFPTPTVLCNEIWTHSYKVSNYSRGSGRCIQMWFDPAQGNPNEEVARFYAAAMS

B1: single chain variable fragment of human antibody C4 (C4 scFv), attached to iron oxide nanocubes (scFv)
scFv: NVQLVESGGGLVQPGRSLRLSCTTSGFTFGDYAMIWARQAPGKGLEWVSSISSSSSYIYYADSVKGRFTISRDNAKNSLYLQMNSLRAEDTAVYYCARERYDFWSGMDVWGKGTTVTVSSGGGGSGGGGSGGSAQSALTQPASVSGSPGQSITISCTGTSSDVGSYNLVSWYQQHPGKAPKLMIYEGSKRPSGVSNRFSGSKSGNAASLTISGLQAEDEADYYCQSYDSSLSVVFGGGTKLTVLGAAAHHHHHHGAAEQ
modifications: histidine tag complexed to Ni2+ of PEG-NTA-Ni linker on the polymer-coated iron oxide nanocube
notes: In the assays the scFv was not free; It was held on polymer-coated cubic iron oxide nanoparticles through its histidine tag and PEG-NTA-Ni, with or without PEG-oxaliplatin; also called scFvC4; C4 antibody fragment
binding result: binds
